Data reported in publication PMC9284284.

Molecular target: T1, TCP4 DNA-binding domain (Arabidopsis thaliana, UniProt Q8LPR5 45-103)
T1 sequence: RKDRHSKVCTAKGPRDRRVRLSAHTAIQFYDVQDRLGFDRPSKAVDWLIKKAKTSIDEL
Experiment: EMSA

B1: SOC1-DNA (dsDNA)
DNA 1: TAATTAGTTTGTGTGGTCCTCCTCCCGATA
DNA 2: TATCGGGAGGAGGACCACACAAACTAATTA
binding result: binds
